Source: patent US20190241623A1 (EVAXION BIOTECH A S, published 2019)

B1: SEQ ID NO 26 (peptide)
peptide: KADALKAITALKLQM
notes: 15-mer peptide selected in silico from the S. aureus proteomes
B2: SEQ ID NO 29 (peptide)
peptide: KTLFVALNNKARIPE
notes: as for B1
B3: SEQ ID NO 36 (peptide)
peptide: SVTIIKSLQAIRVPF
notes: as for B1
B4: SEQ ID NO 25 (peptide)
peptide: ILLGYFVAQRALVKA
notes: as for B1
B5: SEQ ID NO 22 (peptide)
peptide: FLKLFRITNPIARGL
notes: as for B1
B6: SEQ ID NO 32 (peptide)
peptide: MHFIAISINHRTADV
notes: as for B1
B7: SEQ ID NO 37 (peptide)
peptide: TSQFHVLRALRLAQK
notes: as for B1
B8: SEQ ID NO 24 (peptide)
peptide: IIKKLFRLPAIKRFE
notes: as for B1
B9: SEQ ID NO 23 (peptide)
peptide: GLYFVAMNNLKAAGQ
notes: as for B1
B10: SEQ ID NO 35 (peptide)
peptide: STFIYKIANERLFSR
notes: as for B1
B11: SEQ ID NO 39 (peptide)
peptide: WKRIGRLKSIPIFMY
notes: as for B1
B12: SEQ ID NO 33 (peptide)
peptide: QRHFQIGYNRAARII
notes: as for B1
B13: SEQ ID NO 21 (peptide)
peptide: EPINFILKSSTKLKA
notes: as for B1
B14: SEQ ID NO 27 (peptide)
peptide: KHQIRMLSIPRDTIS
notes: as for B1
B15: SEQ ID NO 31 (peptide)
peptide: LMGIRAFRKLLPNIP
notes: as for B1
B16: SEQ ID NO 38 (peptide)
peptide: VLFYLRSNKRQIIEK
notes: as for B1
B17: SEQ ID NO 30 (peptide)
peptide: LDQIIAQANLRLATM
notes: as for B1
B18: SEQ ID NO 34 (peptide)
peptide: SSNVYMFKTALKLAG
notes: as for B1
B19: SEQ ID NO 28 (peptide)
peptide: KRIFKMSPIHHHFEL
notes: as for B1
B20: SEQ ID NO 40 (peptide)
peptide: YFRFQYFNPLKSERY
notes: as for B1

Each binder was assayed against T1, MHC Class II molecule DRB1*01:01 (UniProt P01903 26-216; P01911 30-227) (assay: peptide:MHC II complex stability assay (Immunitrack)).
T1 construct: Assay done by Immunitrack; the construct of the MHC II molecule is not described
B1: binds.
B2: binds.
B3: binds.
B4: binds.
B5: binds.
B6: binds.
B7: binds.
B8: binds.
B9: binds.
B10: binds.
B11: binds.
B12: binds.
B13: binds.
B14: binds.
B15: binds.
B16: binds.
B17: binds.
B18: binds.
B19: binds.
B20: binds.

The binders below were run against T2, MHC Class II molecule DRB1*04:01 (UniProt P01903 26-216; P01911 30-227) in the same assay as above.
T2 construct: Assay done by Immunitrack; the construct of the MHC II molecule is not described
B1: binds.
B2: binds.
B3: binds.
B4: binds.
B5: binds.
B6: binds.
B7: binds.
B8: binds.
B9: binds.
B10: binds.
B11: binds.
B12: binds.
B13: binds.
B14: binds.
B15: binds.
B16: binds.
B17: binds.
B18: binds.
B19: binds.
B20: binds.
